The record followed here is the nanobody polyreactivity screen of Harvey et al. (2022).

The data set in a line: yeast display, Sf9 membrane polyspecificity reagent, FACS + sequencing; frameworks hold sequencing errors. In short, it runs like this:
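Nanobodies from a synthetic yeast display library (Saccharomyces cerevisiae BJ5465), induced 36–48 hours with galactose, were stained 1 hour at 4 °C with 10% biotinylated, detergent-solubilized Sf9 membrane reagent, enriched on streptavidin microbeads, then FACS-sorted. Anti-HA (expression) and streptavidin (reagent binding) fluorescence set low and high (top ~1%) gates. Polyreactivity labels come from the gate of origin. Genes were colony-PCR amplified, MiSeq 2 × 250 sequenced and filtered by CDR length.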
For the sequence “QVQLVESGGGLVQAGGSLRLSCAASGFTVRYYAMGWYRQAPGKERELVAAISWSGGSTYYADSVKGRFTISRDNAKNTVYLQMNSLKPEDTAVYYCNRETSPKVYYPNDYWGQGTQVTVSS”, the “polyreactivity (PSR sort gate)” value is “low polyreactivity”.
Consider “QVQLVESGGGLVQAGGSLRLSCAASGFTVSYYVMGWYRQAPGKERELVAGISWSGVSTYYADSVKGRFTISRDNAKNTVYLQMNSLKPEDTAVYYCAAGYDFSFFVPVRYTEYDYWGQGTQVTVSS”, for which the “polyreactivity (PSR sort gate)” value was “high polyreactivity”.
Under “QVQLVESGGGLVQAGGSLRLSCAASGFTVTRYAMGWYRQAPGKERELVAAITRSGSSTSYADSVKGRFTISRDNAKNTVSLQINSLKPEDTAVYYCAARLHSPRYRYDYWGQGTQVTVSS” stands “high polyreactivity”; under “QVQLVESGGGLVQAGGSLRLSCAASGFTYDNYAMGWYRQAPGKERELVAAIRRSGSRTYYPDSVKGRFTISRDNAKNTVYLQMNSLKPEDTAVYYCAAVWYRLYGYCGQGTQVTVSS”, “low polyreactivity”; under “QVQLVESGGGLVQAGGSLRLSCAASGFTYGVYAMGWYRPAPGKERELVAAISRRGTSTYYADSVKGRFTISRDNAKNTVYLQMNSLKPEDTAVYFCNARRYQVTVDHWGQGTQVTVSS”, “high polyreactivity”.
For “QVQLVESGGGLVQAGGSLRLSCAASGFTYKYYAMGWYRQAPGKERELVAAITRGGDTYYADSVKGRFSISRDNAKNTVYLQMNSLKPEDTAVYYCNTASDKRAFDYWGQGTQVTVSS” the value was “low polyreactivity”; for “QVQLVESGGGLVQAGGSLRLSCAASGFYNTMGWYRQAPGKERELVAAISTGGITNYADSVKGRFTISRDNAKNTVYVLMNSLKPEDTAVYYCPADGYSTVSSSYAYWGQGTQVTVSS”, “low polyreactivity”; for “QVQLVESGGGLVQAGGSLRLSCAASGFYYYAMGWYRQAPGKERELVAVITYSGGSTYYADSVKGRFTISRDNAKNTVYLQMNSVKPEDTAVYYCAADYRPGYDYWGQGTQVTVSS”, “low polyreactivity”.
Under “QVQLVESGGGLVQAGGSLRLSCAASGGAFRYYTMGWYRPAPGKDRELVASISGGGRTYYADSVKGRFTISRDNAKNSVYLQMNSLKPEDTAVYYCNARNRVYYTMSGFGYLGQGTQVTVSS” stands “high polyreactivity”; under “QVQLVESGGGLVQAGGSLRLSCAASGGICRVYAMGWYRQAPGKERELVAAISRSGSSTYYADSVKGRFTISRDNAKNTVYLQMNSLKPEDTAVYYCNAYSQYWLGNNYWGQGTQVTVSS”, “high polyreactivity”; under “QVQLVESGGGLVQAGGSLRLSCAASGGIFAPYAMGWYRQAPGKERELVATISFSGGSTYYADSVKGRFTISRDNAKNTVYLQMNSLKPEDTAVYYCAKRYIYSLLYGLDYWGQGTQVTVSS”, “low polyreactivity”.
Consider “QVQLVESGGGLVQAGGSLRLSCAASGGIFASNAMGWYRQAPGKERELVATITRGGSTNYADSVKGRFTISRDNAKNTVYLQMNSLKPEDTAVYYCAARFYSRAFWTAYYYWGQGTQVTVSS”, for which the “polyreactivity (PSR sort gate)” value is “high polyreactivity”.
On to “QVQLVESGGGLVQAGGSLRLSCAASGGIFAYYAMGWYRQAPGKERELVAAITSRGGRTYYADSVKGRFTISRDNAKNTVYLQMNSLKPEDTAVYYCAAEYINSNYQWYYYWGQGTQVTVSS”, for which the “polyreactivity (PSR sort gate)” value is given as “high polyreactivity”.
For “QVQLVESGGGLVQAGGSLRLSCAASGGIFDRYAMGWSRQAPGKERELVAVISGSVNTYADSVKGRFTISRDNAKNTFYLQMNSLKPEDTAVYYCATQFEGTSGFNYWGQGTQVTVSS” the value was “low polyreactivity”.
Under “QVQLVESGGGLVQAGGSLRLSCAASGGIFFPNAIGWYRQAPGKERELVAAISWSAGSTYYADSVKGRFTISRDNAKNTVYLQMNSLKPEDTAVYYCAAAGSNYTVWYGYYYWGQGTQVTVSS” stands “low polyreactivity”; under “QVQLVESGGGLVQAGGSLRLSCAASGGIFFYYVMGWYRQAPGKERELVAAITSGGSTYYADSVKGRFTISRDNAKNTVYLQMNSLKPEDTAVYSCNGRDVVDYSVWSRYAYDYWGQGTQVTVSS”, “low polyreactivity”.
As for “QVQLVESGGGLVQAGGSLRLSCAASGGIFGANAMGWYRQAPGKERELVAAITWRGGSTYYADSVKGRFTISRDNAKNTVYLQMNSLKPEDTAVYYCAKSFVRYKGRYYWGQGTQVTVSS”, the “polyreactivity (PSR sort gate)” value is listed as “high polyreactivity”.
Under “QVQLVESGGGLVQAGGSLRLSCAASGGIFGAYAMGWYRQAPGKERELVAASDLTDGDTYYADSVKGRFTSSRDNAKNTVYLQMNSLKPEATAVYYCAAEALYWVVDALDYEGDYWGQGTQVTVSS” stands “high polyreactivity”; under “QVQLVESGGGLVQAGGSLRLSCAASGGIFGYYVMGWYRQAPGKERELVAVITRGGSTNYADSVKGRFTISRDNAKNTVYLQMNSLKPEDTAVYYFAKDVPYRRVRSEYWGQGTQVTVSS”, “low polyreactivity”; under “QVQLVESGGGLVQAGGSLRLSCAASGGIFHGYVMGWYRQEPGKERELVASIRTRGVRTYYADSVKGRFTISRDNAKNTVYLQMNSLKPEDTAVYYCNARGQVYSTLSSYRYDYWGQGTQVTVSS”, “high polyreactivity”.
Under “QVQLVESGGGLVQAGGSLRLSCAASGGIFIVNAMGWYRPAPGKERELVAAITLSGGSTYYADSVKGRFTISRDNAKNTVYFQMNSLKPEDTAVYYCNKDYYPGSYDYWGQGTQVTVSS” stands “low polyreactivity”; under “QVQLVESGGGLVQAGGSLRLSCAASGGIFKRNTMGWYRQAPGKERELVAGISWTGGRTYYADSVKGRFTISSDNAKNNVYLPPNSLKPEDTAVYYCAAKPLQGVRRVEYWGQGTQVTVSS”, “high polyreactivity”.
On to “QVQLVESGGGLVQAGGSLRLSCAASGGIFLYNAMGWYRQAPGKERELVAAISRSGGGTYYADSVKGRFTISRDNAKNTVYLQMNSLKPEDTAVYYCAKTLRAYSDYYYWGQGTQVTVSS”, for which the “polyreactivity (PSR sort gate)” value is recorded as “high polyreactivity”.
Under “QVQLVESGGGLVQAGGSLRLSCAASGGIFNSYTMGWYRQAPGKERELVAAITKRGGSTYYADSVKGRFTISRYNAKNTVYLQMNSLKPEDTAVYYCAAGATVQFDYWGQGTQVTVSS” stands “high polyreactivity”; under “QVQLVESGGGLVQAGGSLRLSCAASGGIFPLYAMGWYRQAPGKERELVASITSGGSTYYADSVKGRFTISRDNAKNTVYLQMNSLKPEDTAVYYCAADLRITSYNSWGQGSQVTVSS”, “low polyreactivity”; under “QVQLVESGGGLVQAGGSLRLSCAASGGIFPYYAMGWYRQAPGKERELVADISSGGSTYYADSVKGRFTISRDNAKNSVYLQMNSLKPDDTAVYYCAADAGQYFTYSGDDNHDYWGQGTQVTVSS”, “low polyreactivity”.
For “QVQLVESGGGLVQAGGSLRLSCAASGGIFQGYTMGWYRQAPGKERELVAAISRRGGSTYYADSVKGRFTNSRDNAKNTVYLQMNSVKPEDTAVYYCAAGKPLQLPRYDYWGQGTQVTVSS” the value was “low polyreactivity”.
Under “QVQLVESGGGLVQAGGSLRLSCAASGGIFRDYAMGWSRQAPGKERELVAAISRSGDSTYYADSVKGRFTISRDNAKNTVYLQMNSLKPEDTAVYSCAADWLWAWHYYGAMDYWGQGTQVTVSS” stands “high polyreactivity”; under “QVQLVESGGGLVQAGGSLRLSCAASGGIFRKNAMGWYRQAPGKERELVAAISWDGDNTYADSVKGRFTISRDNAKNTVYLQMNSLKPEDTAVYYCAAETFTDYDYWGQGTQVTVSS”, “high polyreactivity”; under “QVQLVESGGGLVQAGGSLRLSCAASGGIFRKYVMGWYRQAPGKERELVAAISTSGGSTYYADSVKGRFTISRDNAKNSVYLQMNSLKPEDTAVYYCAADILYFYGPRVFEFNYWGQGTQVTVSS”, “high polyreactivity”.
